Test results from PMC11957791.

Target: SBW25 RimK (P. fluorescens SBW25) (UniProt C3KE61)
Sequence of UniProt C3KE61 (C3KE61 whole entry): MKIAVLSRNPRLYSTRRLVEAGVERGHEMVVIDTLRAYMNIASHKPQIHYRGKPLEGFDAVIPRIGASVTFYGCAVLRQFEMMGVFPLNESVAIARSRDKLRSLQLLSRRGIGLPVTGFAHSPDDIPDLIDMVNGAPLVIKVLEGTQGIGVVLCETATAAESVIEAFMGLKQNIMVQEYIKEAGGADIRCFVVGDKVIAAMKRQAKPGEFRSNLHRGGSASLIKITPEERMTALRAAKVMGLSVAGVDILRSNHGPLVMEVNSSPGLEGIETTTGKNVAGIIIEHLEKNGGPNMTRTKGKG

ATPase specific activity of SBW25 RimK (3.8 μM) with RimB (6.0 μM), linked PK/LDH assay; RimK only 47 nmol/min/mg RimK: 196 nmol/min/mg
Substance: SBW25 RimB (enzyme)
